Test: yeast display, Sf9 membrane polyspecificity reagent, FACS + sequencing; frameworks hold sequencing errors
Procedure, shortened: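 Nanobodies came from a synthetic yeast display library in Saccharomyces cerevisiae BJ5465, induced with galactose for 36–48 hours and stained for 1 hour at 4 °C with 10% biotinylated, detergent-solubilized Sf9 membrane reagent. Cells were enriched on streptavidin microbeads and then FACS-sorted, with low and high (top ~1%) gates set on anti-HA fluorescence for expression and streptavidin fluorescence for reagent binding. Each polyreactivity label reflects the gate a clone came from. Genes were amplified by colony PCR, sequenced by MiSeq 2 × 250 and filtered by CDR length.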

Which “polyreactivity (PSR sort gate)” value does the source give for “QVQLVESGGGLVQAGGSLRLSCAASGYIFKSNVMGWYRQAPGKERELVAAISWSGGRTYYADSVKGRFTISRDNAKNTDYLQMNSLKPEDTAVYYCAAVGRQSNYYVDYDYWGQGTQVTVSS” here?
The value was “high polyreactivity”.

With “QVQLVESGGGLVQAGGSLRLSCAASGYIFKSNVMGWYRQAPGKERELVAAISWSGGRTYYADSVKGRFTISRDNAKNTVYFQRNSLKPEDTAVYYCAAVGRQSNYYVDYDYWGQGTQVTVSS” as the sequence, how does the “polyreactivity (PSR sort gate)” value read?
The value was “high polyreactivity”.

For “QVQLVESGGGLVQAGGSLRLSCAASGYIFKYNAMGWYRQAPGKERELVAAISGRGGSTYYADSVKGRFTISRDNAKNTVYLQMNSLKPEDTAVYYCNADYQARRYNYWGQGTQVTVSS”, which “polyreactivity (PSR sort gate)” value is on record?
Its value is “high polyreactivity”.

For “QVQLVESGGGLVQAGGSLRLSCAASGYIFKYYVMGWYIQAPGKERELVAGISSTGGTTYYADSVKGRFTISRDNAKNTVYLQMNSLKPEDSAVYYFAADRVYEASQGYTYFDYDYWGQGTQVTVSS”, which “polyreactivity (PSR sort gate)” value is on record?
The value was “low polyreactivity”.

With “QVQLVESGGGLVQAGGSLRLSCAASGYIFLFYGMGWYRQAPGKERELVASITGTGGNTYYADSVKWRFTISRDNAKNTVYLQMNSLKPEDTAVDYCYADDGYSWGYAYYYSELDYWGQGTQVTVSS” as the sequence, how does the “polyreactivity (PSR sort gate)” value read?
The value was “low polyreactivity”.

For “QVQLVESGGGLVQAGGSLRLSCAASGYIFLGNAMGWYRQAPGKERELVAAISRSGGSTYYADSVKGRFTISRDNAKNTVYLQMNSLKPEATAVYYCAAGTRIYNSWIRFDYWGQGTQVTVSS”, which “polyreactivity (PSR sort gate)” value is on record?
Its value is “high polyreactivity”.

For “QVQLVESGGGLVQAGGSLRLSCAASGYIFLTNAMGWYRPAPGKERELVAAISVSGGRTYYADSVKGRFTISRDNAKNTVYLQMNSLKPEDTAVYYCNTLLTYGYDYWGQGTQVTVSS”, which “polyreactivity (PSR sort gate)” value is on record?
The value was “low polyreactivity”.

Which “polyreactivity (PSR sort gate)” value does the source give for “QVQLVESGGGLVQAGGSLRLSCAASGYIFLTNAMGWYRQAPGKEREWVAAISVSGGRTYYADSVKGRFTISRDNAKNTVYLQMNSLKPEDTAVYYCNTLLTYGYDYWGQGTQVTVSS” here?
Its value is “low polyreactivity”.

Which “polyreactivity (PSR sort gate)” value does the source give for “QVQLVESGGGLVQAGGSLRLSCAASGYIFNYYAMGWYRQAPGKERELVAAISWDGTDTYYADSVKGRFTISRDNAKNTVYLQMNSLKPEDTAVYYCNADYDVYGWRNYWGQGTQVTVSS” here?
The value was “low polyreactivity”.

Which “polyreactivity (PSR sort gate)” value does the source give for “QVQLVESGGGLVQAGGSLRLSCAASGYIFPKNAMGGYRQAPGKERELVAAITGSGGSTYYADSVKGRFTISRDNAKNTVYLQMISLKPEDTAVYYCAKRSWFEYDYWGQGTQVTVSS” here?
The value was “low polyreactivity”.

For “QVQLVESGGGLVQAGGSLRLSCAASGYIFPTYGMGWYRQAPGKERELVADITNNAGSTYYADSVKGRFTISRDKAKNTVYLQMKSLKPEDTEVYYCAADAYWPYWPYSYDYWGHGTQVTVSS”, which “polyreactivity (PSR sort gate)” value is on record?
The value was “low polyreactivity”.

Which “polyreactivity (PSR sort gate)” value does the source give for “QVQLVESGGGLVQAGGSLRLSCAASGYIFQPYAMGWYRQAPGKERELVAAIDWTGGRTYYADSVKGRFTISRDNAKNTVYLQMNSLKPEVTAVYYCNADFGYWWDGRRYDYWGQGTQVTVSS” here?
The value was “low polyreactivity”.

Which “polyreactivity (PSR sort gate)” value does the source give for “QVQLVESGGGLVQAGGSLRLSCAASGYIFRFNAMGWYRQAPGKERELVAVITKSGGSTYYADSVKGRFTISRDNAKNTVYLQMNSLKPEDTAVYDCNADRFYIDYTNTYDSIRDYWGQGTQVTVSS” here?
The value was “low polyreactivity”.

For “QVQLVESGGGLVQAGGSLRLSCAASGYIFRGYVMGWYRQAPGKERELVAGISRSGSSTYYADSVKGRFTISRDNAKNTVYLQMNSLKPEDTAVYYCAAVRSGIEYGYWGQGTQVTVSS”, which “polyreactivity (PSR sort gate)” value is on record?
The value was “high polyreactivity”.

Which “polyreactivity (PSR sort gate)” value does the source give for “QVQLVESGGGLVQAGGSLRLSCAASGYIFRHYAMGWYRQAPGKERELVAAISGRGGSTYYADSVKGRFTISRDNAKNTVYLQMNSLKPEDTAVYYCAKDRKAVGDFYYWGQGTQVTVSS” here?
Its value is “high polyreactivity”.

With “QVQLVESGGGLVQAGGSLRLSCAASGYIFRIYAMGWYRQAPGKERELVARISSGGGTNYADSVKGRFTISRDNAKNTVYLQMNSLKPEDTAVYYCNAGYGYQRGGVFFYRMGYWGQGTQVTVSS” as the sequence, how does the “polyreactivity (PSR sort gate)” value read?
The value was “high polyreactivity”.

Which “polyreactivity (PSR sort gate)” value does the source give for “QVQLVESGGGLVQAGGSLRLSCAASGYIFRKYAMGWYRQAPGKERELVADISSSGGSTYYADSVKGRFTISRDNAKNTVYLQMNSLKPEDTAVYYCAKDRKSSRRITRMDYWGQGTQVTVSS” here?
Its value is “high polyreactivity”.

For “QVQLVESGGGLVQAGGSLRLSCAASGYIFRYNAMGWYRQAPGTEREFVASINWSGGRTYYADSVKGRFTLSRDNAKNTVYLQMNSLKPEDTAVYYCAAVYYVSLVYGYYVEGSYEYYYWGQGTQVTVSS”, which “polyreactivity (PSR sort gate)” value is on record?
The value was “high polyreactivity”.

Which “polyreactivity (PSR sort gate)” value does the source give for “QVQLVESGGGLVQAGGSLRLSCAASGYIFSGYAMGWYRQAPGKERELVAAISSNGGSTYYADSVKGRFTISRDNAKNTVYLQMISLKPEDTAVYYCNRGLAARVGRGDYWGQGTQVTVSS” here?
Its value is “low polyreactivity”.

For “QVQLVESGGGLVQAGGSLRLSCAASGYIFSRYAMGWYRPAPGKERELVAAITRSGTRTYYADSVKGRFTISRDNAKNTVYLQMNSLKPEDTAVYYCAKQYLYSSGFDYWGQGTQVTVSS”, which “polyreactivity (PSR sort gate)” value is on record?
Its value is “high polyreactivity”.

With “QVQLVESGGGLVQAGGSLRLSCAASGYIFSYYAMGWYRQAPGKEREFVAAIRWRGGSTYYADSVKGRFTISRDYAKNTVYLQMNSLKPEDTEVYYCAAGPATSYYWGQGTQVTVSS” as the sequence, how does the “polyreactivity (PSR sort gate)” value read?
The value was “high polyreactivity”.

For “QVQLVESGGGLVQAGGSLRLSCAASGYIFSYYAMGWYRQAPGKERELVAAINRSGGRTYYADSVKGRFTISRDNAKNTVYLQMNSLKPEDTAVYYCNAYSGLSYRYGYYYWGQGTQVTVSS”, which “polyreactivity (PSR sort gate)” value is on record?
The value was “high polyreactivity”.

With “QVQLVESGGGLVQAGGSLRLSCAASGYIFTEYDMGWSRQAPGKERELVAANSESGGSTYYADSVKGRFTISRDNAKNTVYLQMNSLKPEDTAVYYCAADQYYYWYTHQSIGYDYWGQGTQVTVSS” as the sequence, how does the “polyreactivity (PSR sort gate)” value read?
Its value is “low polyreactivity”.

For “QVQLVESGGGLVQAGGSLRLSCAASGYIFTSYAMGWYRQAPGKERELVATITTGGSTYYADSVKGRFTISRDNAKNTVYFQMNSLKPEDTAVYYCNAVLHGWYDYWGQGTQVTVSS”, which “polyreactivity (PSR sort gate)” value is on record?
The value was “low polyreactivity”.

Which “polyreactivity (PSR sort gate)” value does the source give for “QVQLVESGGGLVQAGGSLRLSCAASGYIFTTYAMGWYRQAPGKERELVAAISSSGGRTSYADSVKGRFTISRDNAKNTVYLQMNSLKPEDTAVYYCNARVAPKSRRITYGYWGQGTQVTVSS” here?
The value was “high polyreactivity”.

With “QVQLVESGGGLVQAGGSLRLSCAASGYIFTYYTMGWYRQAPGKERELVAAITSSGSRTRYADSVKGRFTISRDNAKNTVYLQMNSLKPEDTAVYYCAAVYRLKSGVEWRDSQFGYWGQGTQVTVSS” as the sequence, how does the “polyreactivity (PSR sort gate)” value read?
Its value is “high polyreactivity”.

Which “polyreactivity (PSR sort gate)” value does the source give for “QVQLVESGGGLVQAGGSLRLSCAASGYIFVGNAMGWYRQAPGKERELVATIRSSTGNTYADSVKGRFTISRDNAKNTVYLQMNSLKPEDTAVYYCATVYEWPGWGREYGYWGQGTQVTVSS” here?
The value was “low polyreactivity”.

Which “polyreactivity (PSR sort gate)” value does the source give for “QVQLVESGGGLVQAGGSLRLSCAASGYIFVHYAMGWYRQAPGKERDLVAAITRGGNTYYADSVKGRFTISRDNANNTVNLQMNSLKPEDTAVHYCAADNYGRGAGYDYWGQGSQVTVSS” here?
The value was “high polyreactivity”.

For “QVQLVESGGGLVQAGGSLRLSCAASGYIFVIYAMGWYSQAPGEERELVAAISWSGDTTYYADSVKGRFTISRDNAKNTVYLQMNSLQPEDTAVFYCNAETAYYQVDYCGQGTQVTVSS”, which “polyreactivity (PSR sort gate)” value is on record?
Its value is “low polyreactivity”.

With “QVQLVESGGGLVQAGGSLRLSCAASGYIFVKNAMGWYRQAPGKERELVAAISTRGGRTYYADSVKVRFTISRDNAKNTVSLQMNSLKPEDTAVYYCAAVHHTSYYDANSYGYWGQGTQVTVSS” as the sequence, how does the “polyreactivity (PSR sort gate)” value read?
Its value is “high polyreactivity”.

With “QVQLVESGGGLVQAGGSLRLSCAASGYIFVRNAMGWYRQAPGKEREFVAAISGSGGSTYYADSVKGRFTISRDNAKNTVYFQMNSMKPEDTAVYYCAADYATVTWRGIAYDYWGQGTQVTVSS” as the sequence, how does the “polyreactivity (PSR sort gate)” value read?
Its value is “low polyreactivity”.

Which “polyreactivity (PSR sort gate)” value does the source give for “QVQLVESGGGLVQAGGSLRLSCAASGYIFVWYAMGWSRQAPGKERELVATISGGGGTYYADSVKGRFTISRDNAKNNVYFQMNSLNPEDTAVYYCNKGVGWTEASPYSPEYDYWGQGTQVSVSS” here?
Its value is “low polyreactivity”.

Which “polyreactivity (PSR sort gate)” value does the source give for “QVQLVESGGGLVQAGGSLRLSCAASGYIFVYNAMGWYRQAPGKERELVAAITDGGGSTYADSVKGRFTISRDNAKNTVYLQMNSLNPEDTAVYYCAARYSDTTWYVLYYYWGQGTQVTVSS” here?
The value was “low polyreactivity”.

Which “polyreactivity (PSR sort gate)” value does the source give for “QVQLVESGGGLVQAGGSLRLSCAASGYIFWINSMGWYRQAPGKERELVAAIRYSTGRTYYADSVKGRFTISRDNAKNTVYLQMNSQKPEDTAVYYCNARSWYIRGSQEYYYWGQGTQLTVSS” here?
The value was “high polyreactivity”.

For “QVQLVESGGGLVQAGGSLRLSCAASGYIFWWNAMGWYRQAPGKERELVAGISWSGSPTYYADSVKGRFTITRDNAKNTVYLQMNSLKPEDTAVYYCNAAAITLYDYDYWGQGTQVTVSS”, which “polyreactivity (PSR sort gate)” value is on record?
The value was “low polyreactivity”.

For “QVQLVESGGGLVQAGGSLRLSCAASGYIFYDNAMGWYRQAPGKERELVAAISASGGDTYYADSVKGRFTISRDNAKNTVYLQMNSLKPEDTAVYYCAADLITYAMEFWGQGTQVTVSS”, which “polyreactivity (PSR sort gate)” value is on record?
The value was “low polyreactivity”.

Which “polyreactivity (PSR sort gate)” value does the source give for “QVQLVESGGGLVQAGGSLRLSCAASGYIFYFYAMGWYRQAPGKERELVAAITSVGSTKYADSVKGRFTISRDNAKNTVYLQMNSLKPEDTAVYYCAARRWRSYYYWGQGTQVTVSS” here?
Its value is “high polyreactivity”.

With “QVQLVESGGGLVQAGGSLRLSCAASGYIFYHYAMGWYRQAPGKERELVATISLGGGRTYYADSVKGRFTISRDNAKNTVYLQMNSLKPEDTAVYYCAAKQYGYYSDYYYWGQGTQVTVSS” as the sequence, how does the “polyreactivity (PSR sort gate)” value read?
Its value is “high polyreactivity”.

For “QVQLVESGGGLVQAGGSLRLSCAASGYIFYNAMGWYRQAPGKERELVAAISSSGGTTYYADSVKGRFTISRDNAKNTVFLQMNSLKPEDTAVYYCAATFRKRYPSRYDSWGQGTQVTVSS”, which “polyreactivity (PSR sort gate)” value is on record?
The value was “low polyreactivity”.

For “QVQLVESGGGLVQAGGSLRLSCAASGYIFYNYAMGWYRQAPGKERELVAAISRRGGSTYYADSVKGRFTISRDNAKNTVYLEMNSLKPEDTAVYYCAAKQYGWNLYGYWGQGTQVTVSS”, which “polyreactivity (PSR sort gate)” value is on record?
Its value is “high polyreactivity”.

For “QVQLVESGGGLVQAGGSLRLSCAASGYIFYRYTMGWYRQAPGKERELVAAISFRGGTTYYADSVKGRFTISRDNAKNTVYLQMNSLKPEDTAVYYCAARYGYYTSDYKYYYWGQGTQVTVSS”, which “polyreactivity (PSR sort gate)” value is on record?
Its value is “high polyreactivity”.

From the nanobody polyreactivity screen of Harvey et al. (2022)
